Patent publication US20230051715A1 (MABWELL THERAPEUTICS, published 2023)
Where a chain is given by its changes, count along the chain named. Numbers in names are those of the source.

T1: human C1s mutant M7 (D343Y & E351A) (human, UniProt P09871 16-688)
T1 construct: The entry is the mutant itself
T1 sequence: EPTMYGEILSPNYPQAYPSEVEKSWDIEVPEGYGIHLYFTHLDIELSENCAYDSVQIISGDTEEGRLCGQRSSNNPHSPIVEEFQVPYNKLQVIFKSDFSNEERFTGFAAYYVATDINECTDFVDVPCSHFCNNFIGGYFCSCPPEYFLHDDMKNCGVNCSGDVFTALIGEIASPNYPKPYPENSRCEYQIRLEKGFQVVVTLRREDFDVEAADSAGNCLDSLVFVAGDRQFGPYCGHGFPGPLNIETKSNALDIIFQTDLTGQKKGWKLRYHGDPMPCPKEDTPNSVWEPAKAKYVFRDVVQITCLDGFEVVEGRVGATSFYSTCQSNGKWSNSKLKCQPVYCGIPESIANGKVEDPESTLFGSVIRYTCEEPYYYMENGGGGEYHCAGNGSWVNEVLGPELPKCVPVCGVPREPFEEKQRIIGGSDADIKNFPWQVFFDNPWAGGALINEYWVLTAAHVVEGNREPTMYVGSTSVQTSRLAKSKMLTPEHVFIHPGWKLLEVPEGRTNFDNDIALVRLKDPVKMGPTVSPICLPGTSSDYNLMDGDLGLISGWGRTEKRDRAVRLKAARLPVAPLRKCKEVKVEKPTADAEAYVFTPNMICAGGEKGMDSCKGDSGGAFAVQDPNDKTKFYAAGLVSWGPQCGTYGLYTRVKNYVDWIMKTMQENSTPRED

T2: full-length mouse C1s (produced in house) (mouse, UniProt Q8CG14 16-688)
T2 construct: Called full-length; also called MoC1s; moC1s
T2 sequence: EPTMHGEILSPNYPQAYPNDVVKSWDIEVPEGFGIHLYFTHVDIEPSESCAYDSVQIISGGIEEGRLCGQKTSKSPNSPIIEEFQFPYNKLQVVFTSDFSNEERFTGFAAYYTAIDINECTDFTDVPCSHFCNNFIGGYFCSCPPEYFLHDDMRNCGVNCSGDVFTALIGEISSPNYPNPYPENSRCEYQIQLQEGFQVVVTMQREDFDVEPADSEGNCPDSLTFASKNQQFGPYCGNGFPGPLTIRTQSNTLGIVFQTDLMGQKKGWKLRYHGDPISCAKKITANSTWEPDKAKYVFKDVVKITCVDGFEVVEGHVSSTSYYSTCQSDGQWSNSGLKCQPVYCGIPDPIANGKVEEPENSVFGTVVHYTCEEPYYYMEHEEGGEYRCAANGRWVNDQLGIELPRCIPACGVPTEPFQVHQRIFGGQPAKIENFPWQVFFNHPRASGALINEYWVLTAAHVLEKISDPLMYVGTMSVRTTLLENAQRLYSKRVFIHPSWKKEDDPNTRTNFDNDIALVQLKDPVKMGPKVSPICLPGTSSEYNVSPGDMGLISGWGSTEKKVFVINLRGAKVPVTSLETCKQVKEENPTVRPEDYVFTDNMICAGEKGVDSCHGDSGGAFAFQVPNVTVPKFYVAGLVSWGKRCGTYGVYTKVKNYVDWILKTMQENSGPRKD

B1: Anti-C1s antibody hz2-8 (H1L2 G80A) (antibody, V domains shown)
VH: QVQLVQSGAEVKKPGASVKVSCKASGFNIKEYYMHWVRQAPEQGLEWMGWIDPENADTIYAQKFQGRVTITADTSTNTAYMELSSLRSEDTAVYYCARSRLFFAYWGQGTLVTVSS
VL: DIQMTQSPKSLSASVGDRVTITCRASQDVRTALDWYQQKPGQSPKLLIYSASYRYSGVPSRFSGSGSGTDFTLTISSLQPEDFATYYCQQQYTTPYTFGQGTKLEIKR
notes: Humanized variant with G80A in HC CDR2 (already in the entry), human IgG1 / kappa
B2: Anti-C1s antibody hz2-8 (H1L2 G80A/T82A) (antibody, V domains shown)
VH: B1 VH with T58A
VL: B1 VL
notes: Humanized variant with G80A and T82A in HC CDR2 (already in the entry), human IgG1 / kappa
B3: Anti-C1s antibody hz2-7(H1L2) (antibody, V domains shown)
VH: EVQLLESGGGLVQPGGSLRLSCAASGFTFSNYFMNWVRQAPGKGLEWVSEIRLKFTNYATHYADSVKGRFTISRDDSKSTLYLQMNSLRAEDTAVYYCTRDYGSRNGYFDYWGQGTLVTVSS
VL: DIVMTQTPLSLPVTPGEPASISCRSSKSLLHSNGNTFLYWFLQKPGQSPQLLIYRMSNLASGVPDRFSGSGSGTDFTLKISRVEAEDVGVYYCMQHLEYPYTFGGGTKLEIKR
notes: Humanized, human IgG1 / kappa; also called hz2-7(1L2)
B4: Anti-C1s antibody 2-7 (antibody, human IgG1, kappa, V domains shown)
VH: EVKLEESGGGLVPPGGSMKLSCVASGFTFSNYFMNWVRQSPEKGLEWVAEIRLKFTNYATHYAESVEGRFTISRDDSKSSVYLQMNNLRAEDTGIYYCTRDYGSRNGYFDYWGQGTTLTVSS
VL: DIVMTQAAPSVPVTPGESVSISCRSSKSLLHSNGNTFLYWFLQRPGQSPQLLIYRMSNLASGVPDRFSGSGSGTAFTLRVSRVEAEDVGIYYCMQHLEYPYTFGGGTKLEIKT
notes: the HC/LC entries may hold it too; also called clone 2-7
B5: Anti-C1s antibody 2-8 (antibody, V domains shown)
VH: EVQLQQSGAELVRPGALVKLSCKASGFNIKEYYMHWVKQRPEQGLEWIGWIDPENGDTIYDPKFQGKASITADTSSNTAYLQLSSLTSEDTAVYYCARSRLFFAYWGQGTLVTVSA
VL: DIVMTQSHKFMSTSVGDRVSFTCKASQDVRTAVDWYQQKPGQSPKLLIYSASYRYTGVPDRFTGTGSGTDFTFTISSVQAEDLAVYFCQQQYTTPYTFGGGTKLEIKT
notes: the HC/LC entries may hold it too; also called clone 2-8

The binders below were run against T1, human C1s mutant M7 (D343Y & E351A) (assay: ELISA, plate coated with human C1s mutant M7: D343Y, E351A, OD450nm).
Description: ELISA was carried out by first coating 96-well plates with 200 ng/well of full-length or truncated C1s proteins overnight. The next morning, plates were blocked with SuperBlock T20 blocking buffer (Thermo Scientific 37536) for 1 h with gentle shaking. Then, various concentrations of anti-C1s antibodies diluted in SuperBlock T20 blocking buffer were added to the plates and incubated for 1 h with gentle shaking. Mouse IgG (Sigma-Aldrich 15381) and human IgG1 (BioXCell BP0297) were used as negative controls. The plates were washed before incubating with HRP conjugated secondary antibodies diluted in SuperBlock T20 blocking buffer (goat anti-mouse IgG (H+L) cross-adsorbed secondary antibody HRP (Invitrogen G-21040) or goat anti-human IgG antibody, HRP conjugate (Millipore AP309P)) for 1 h with gentle shaking. At last, the plates were washed and color developed with ELISA liquid HRP substrate (Sigma-Aldrich), followed by stopping the reaction with addition of 1M H₂SO₄ in the same volume as the ELISA liquid substrate. Bound antibody was measured by absorbance at OD₄₅₀ₙₘ.
Binding of anti-C1s antibodies to mutants M1-M20 of human C1s was measured by ELISA as described in Example 4, and results are shown in FIGS. 6B-6U. All anti-C1s humanized variants including hz2-7(H1L2), hz2-8(H1L2 G80A) and hz2-8(H1L2 G80A/T82A) maintained strong binding properties to the majority (16 out of 20) of C1s mutants including M1 (FIG. 6B), M2 (FIG. 6C), M3 (FIG. 6D). M4 (FIG. 6E), M7 (FIG. 6H), M8 (FIG. 6I), M10 (FIG. 6K), M11 (FIG. 6L), M12 (FIG. 6M), M13 (FIG. 6N), M15 (FIG. 6P), M16 (FIG. 6Q), M17 (FIG. 6R), M18 (FIG. 6S), M19 (FIG. 6T) and M20 (FIG. 6U).

EC50 [µg/mL]	Binder
0.012	B1
0.011	B2
0.015	B3

The binders below were run against T2, full-length mouse C1s (produced in …) (assay: ELISA, plate coated with 200 ng/well MoC1s, OD450nm).
Description: The next morning, plates were blocked with SuperBlock T20 blocking buffer (Thermo Scientific 37536) for 1 h with gentle shaking. Then, various concentrations of anti-C1s antibodies diluted in SuperBlock T20 blocking buffer were added to the plates and incubated for 1 h with gentle shaking. Mouse IgG (Sigma-Aldrich I5381) and Human IgG1 (BioXCell BP0297) were used as negative controls. The plates were washed before incubating with HRP conjugated secondary antibodies diluted in SuperBlock T20 blocking buffer (goat anti-mouse IgG (H+L) cross-adsorbed secondary antibody HRP (Invitrogen G-21040) or goat anti-human IgG antibody, HRP conjugate (Millipore AP309P)) for 1 h with gentle shaking. At last, the plates were washed and color developed with ELISA liquid substrate (Sigma-Aldrich), followed by stopping the reaction with addition of the same volume of […] 1M H₂SO₄. Bound antibody was measured by absorbance at OD₄₅₀ₙₘ.

binding result	Binder
no binding (tested: 1000 ng/ml (Log 3))	B2
no binding (tested: 1000 ng/ml (Log 3))	B4
no binding (tested: 1000 ng/ml (Log 3))	B5
no binding (tested: 1000 ng/ml (Log 3))	B3
